Experiment [1] deals with T1, recombinant His-tagged human PD-1 (Acro Biosystems) (human, UniProt Q15116 25-167).
T1 construct: His-tagged; also called hPD-1
As to the kind of experiment: SPR Carterra LSA.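 Note: antibodies or fusion proteins amine-coupled on an HC30M chip, soluble His-tagged human or cynomolgus PD-1 titrated over them, non-regenerative kinetics, constants fitted from titration curves.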
Description: Surface plasmon resonance binding analysis was performed using a high-throughput SPR Carterra® LSA™ to determine binding affinities of anti-hPD-1 antibodies and anti-hPD-1-attenuated hIL-2 fusion proteins. Proteins were diluted to 2 or 10 μg/mL in 10 mM sodium acetate pH 4.5 containing 0.01% Tween-20 and coupled to a HC30M (Carterra Bio) chip using sulpho-N-hydroxysuccinimide/1-ethyl-3-(3-dimethylamino) propyl carbodiimide (sulpho-NHS/EDC) coupling chemistry and blocked with ethanolamine. A non-regenerative kinetic coupling process was used to determine binding kinetics to commercially sourced recombinant His-tagged human PD-1 and His-tagged cynomolgus PD-1 (Acro Biosystems).
The association constants (kₐ), dissociation constants (kd), and equilibrium constants (KD) of various anti-hPD-1 antibodies and anti-hPD-1 antibody-attenuated hIL-2 fusion proteins binding to recombinant human or cynomolgus PD-1 proteins was determined from the titration curves and the Carterra Kinetics software. The maximal feasible SPR signal generated (Rₘₐₓ) and residual standard deviation (Res SD) was also calculated.

The target in experiment [2] is T2, recombinant His-tagged cynomolgus PD-1 (Acro Biosystems) (cynomolgus, UniProt B0LAJ3 25-170).
T2 construct: His-tagged; also called Cyno PD-1; not shown: His tag (and any linker) of the Acro Biosystems product
T2 sequence (B0LAJ3 entry or part of it limits assumed): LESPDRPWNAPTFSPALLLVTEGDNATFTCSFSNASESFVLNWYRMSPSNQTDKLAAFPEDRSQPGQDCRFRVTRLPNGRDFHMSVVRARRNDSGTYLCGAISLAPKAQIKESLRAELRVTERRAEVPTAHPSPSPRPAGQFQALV
As to the kind of experiment: SPR Carterra LSA.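 Note: antibodies or fusion proteins amine-coupled on an HC30M chip, soluble His-tagged human or cynomolgus PD-1 titrated over them, non-regenerative kinetics, constants fitted from titration curves.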

The target in experiment [3] is human PD-1 on Jurkat Effector cells of the PD-1/PD-L1 blockade bioassay (Promega, Cat #J1255) (human, UniProt Q15116 25-288). As to the kind of experiment: cell-based or functional assay.
human PD-1 on Jurkat Effector cells of the PD-1/PD-L1 blockade bioassay (Promega, Cat #J1255), sequence (Q15116 25-288): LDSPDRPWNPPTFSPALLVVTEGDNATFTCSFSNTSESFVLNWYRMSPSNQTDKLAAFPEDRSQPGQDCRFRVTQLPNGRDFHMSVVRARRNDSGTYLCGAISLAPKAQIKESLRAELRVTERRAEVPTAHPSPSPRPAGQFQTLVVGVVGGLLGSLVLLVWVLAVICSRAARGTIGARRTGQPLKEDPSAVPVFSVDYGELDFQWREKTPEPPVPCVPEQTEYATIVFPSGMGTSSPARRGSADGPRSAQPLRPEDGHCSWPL

T1 sequence (Q15116 25-167 limits assumed): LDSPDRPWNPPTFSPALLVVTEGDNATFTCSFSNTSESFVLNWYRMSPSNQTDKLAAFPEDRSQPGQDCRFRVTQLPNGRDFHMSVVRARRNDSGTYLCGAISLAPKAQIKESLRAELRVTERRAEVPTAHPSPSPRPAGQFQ

B1: OMC.1.B6-hIgG4 (antibody, V domains shown)
VH: EVQLLESGGGLVQPGGSLRLSCAASGFTFSSNYMSWVRQAPGKGLEWVSAISSSGGTIFYADSVKGRFTISRDNSKNTLYLQMNSLRAEDTAVYYCAKHKWNAVYYDGMDVWGQGTTVTVSS
VL: QSVLTQPPSASGTPGQRVTISCSGSNSNIGRNLVNWYQQLPGTAPKLLIYTIDQRPSGVPDRFSGSKSGTSASLVISGLQSEDEADYYCAAWDGSLNAWVFGGGTKLTVLG
What is called Kd is the concentration at which binding is half-saturated. A word on the koff: it is a measure of how fast the partners let go of each other. One may read the kon as a measure of how fast the partners come together. As to B1, in experiment [1], the Kd came out at 52 nM, the koff came to 0.004 s⁻¹ and the kon was determined as 77000 M⁻¹ s⁻¹. In experiment [2], the Kd worked out at 51 nM, the koff is 0.0044 s⁻¹ and the kon came to 88000 M⁻¹ s⁻¹.

B2: OMC.1.D6-hIgG4 (antibody, V domains shown)
VH: EVQLLESGGGLVQPGGSLRLSCAASGFTFSDYYMSWVRQAPGKGLEWVSAISSSGGTIFYADSVKGRFIISRDNSKNTLYLQMNSLRAEDTAVYYCAKHKWNDVYYDAMDVWGQGTTVTVSS
VL: QSVLTQPPSASGTPGQRVTISCSGSNSNIGRNLVNWYQQLPGTAPKLLIYTVDQRPSGVPDRFSGSKSGTSASLAISGLASEDEADYYCAAWDSSLNSWVFGGGTKLTVLG
For B2, in experiment [1], the Kd is 42 nM, the koff worked out at 0.0017 s⁻¹ and the kon turned out to be 41000 M⁻¹ s⁻¹. In experiment [2], the Kd is 694 nM, the koff worked out at 0.04 s⁻¹ and the kon turned out to be 58000 M⁻¹ s⁻¹.

B3: 2A3.H7-hIgG4 (antibody, V domains shown)
VH: EVQLLESGGGLVQPGGSLRLSCAASGFTFKDYCMTWVRQAPGKGLEWVSAIVYSGGSTYYADSVKGRFTISRDNSKNTLYLQMNNLRAEDTAVYYCAKYTRASYFYDAMDVWGQGTTVTVSS
VL: EIVLTQSPGTLSLSPGERATLSCRASQSIGRSFLAWYQQKPGQAPRLLIYDASTRAADIPARFSGSGSGTDFTLTISSLEPEDFAVYYCQQYYDWPPLSFGGGTKVEIKR
For B3, the “luminescence (RLU), PD-1/PD-L1 blockade bioassay” value in experiment [3] is around 3000 RLU.

B4: 1D5-hIgG4 (antibody, V domains shown)
VH: EVQLLESGGGLVQPGGSLRLSCVGSGFNFKDYCMTWVRQAPGKGLEWVSAIVYSGGSTYYADSVKGRFTISRDNSKNTLYLQMNSLRAEDTAVYYCAKYTRGSYFYDAMDVWGQGTTVTVSS
VL: EIVLTQSPGTLSLSPGERATLSCRASQSIGRSFLAWYQQKPGQAPRLLIYDASTRATDIPDRFSGSGSGTEFTLTISSLQSEDFAVYYCQQYYDWPPLTFGGGTKVEIKR
For the molecule B4, the “luminescence (RLU), PD-1/PD-L1 blockade bioassay” value in experiment [3] is around 3000 RLU.

B5: OMC.2.C6-hIgG4 (antibody, V domains shown)
VH: EVQLLESGGGLVQPGGSLRLSCTASGFTFSSYEMQWVRQAPGKGLEWVLGITSSSSHIFYADSVKGRFTVSRDNSKNTLYLQMNSLRAEDTAVYYCTKDLNSYYGLDVWGQGTTVTVSS
VL: QSVMTQPPSASGTPGQRVTISCSGSTSNLGNNYVSWYQHLPGTAPKLLIYGNDQRPSGVPDRFSGSKSGTSASLAISGLQSDDEADYYCSSWDASLNVWVFGGGTKLTVLG
With B5, in experiment [1], the Kd is 12 nM, the off-rate (koff) worked out at 0.00066 s⁻¹ and the association rate constant (kon) stood at 57000 M⁻¹ s⁻¹. Further, in experiment [2], the dissociation constant (Kd) stood at 13 nM, the off-rate (koff) is 0.00074 s⁻¹ and the on-rate constant (kon) was determined as 55000 M⁻¹ s⁻¹.

B6: Anti-PD-1 clone J110 hIgG1 (antibody, V domains shown)
VH: DVQLQESGPGLVKPSQSLSLTCTVTGHSITSDYAWNWIRQFPGDKLEWMGYISYSGYTTYNPSLKSRVSITRDTSKNQFFLQLNSVTTEDTATYFCARDLDYGPWFAYWGQGTLVTVSA
VL: DIQMTQSPASLSASVGETVTLTCRASENIHNYLAWYQQKQGKSPQLLVYNVKTLADGVPSRFSGSGSGTQYSLKINSLQPEDFGSYYCQHFWSSPWTFGGGTKVEIKR
Take B6: in experiment [1], the dissociation constant (Kd) amounted to 10 nM, the koff came out at 0.001 s⁻¹ and the on-rate (kon) turned out to be 100000 M⁻¹ s⁻¹. For the same molecule, in experiment [2], the Kd stood at 1200 nM, the off-rate (koff) turned out to be 0.05 s⁻¹ and the association rate constant (kon) amounted to 41000 M⁻¹ s⁻¹.

B7: 2H7-hIgG4-LE (antibody)
heavy: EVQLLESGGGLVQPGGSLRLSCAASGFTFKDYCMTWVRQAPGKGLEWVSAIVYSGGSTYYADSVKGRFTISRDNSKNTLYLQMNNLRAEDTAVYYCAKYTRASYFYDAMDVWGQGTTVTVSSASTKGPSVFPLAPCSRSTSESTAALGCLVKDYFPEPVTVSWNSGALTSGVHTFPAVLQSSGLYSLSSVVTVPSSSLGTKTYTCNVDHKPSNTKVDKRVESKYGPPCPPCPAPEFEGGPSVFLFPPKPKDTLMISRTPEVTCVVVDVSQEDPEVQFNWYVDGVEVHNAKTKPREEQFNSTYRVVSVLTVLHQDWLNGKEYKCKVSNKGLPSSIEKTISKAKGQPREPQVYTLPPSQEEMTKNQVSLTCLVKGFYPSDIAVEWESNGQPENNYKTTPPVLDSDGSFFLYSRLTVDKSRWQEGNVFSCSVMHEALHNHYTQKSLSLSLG
light: EIVLTQSPGTLSLSPGERATLSCRASQSIGKSFLAWYQQKPGQAPRLLIYDASTRAADIPARFSGSGSGTDFTLTISSLEPEDFAVYYCQQYYDWPPLSFGGGTKVEIKRTVAAPSVFIFPPSDEQLKSGTASVVCLLNNFYPREAKVQWKVDNALQSGNSQESVTEQDSKDSTYSLSSTLTLSKADYEKHKVYACEVTHQGLSSPVTKSFNRGEC
On to B7, for which, in experiment [1], the dissociation constant Kd turned out to be 3.1 nM, the koff amounted to 0.00082 s⁻¹ and the on-rate constant (kon) turned out to be 260000 M⁻¹ s⁻¹. Moreover, in experiment [2], the dissociation constant Kd came to 7.1 nM, the koff was 0.001 s⁻¹ and the association rate constant (kon) turned out to be 140000 M⁻¹ s⁻¹.

B8: 2H7-hIgG4-LAGA (antibody)
heavy: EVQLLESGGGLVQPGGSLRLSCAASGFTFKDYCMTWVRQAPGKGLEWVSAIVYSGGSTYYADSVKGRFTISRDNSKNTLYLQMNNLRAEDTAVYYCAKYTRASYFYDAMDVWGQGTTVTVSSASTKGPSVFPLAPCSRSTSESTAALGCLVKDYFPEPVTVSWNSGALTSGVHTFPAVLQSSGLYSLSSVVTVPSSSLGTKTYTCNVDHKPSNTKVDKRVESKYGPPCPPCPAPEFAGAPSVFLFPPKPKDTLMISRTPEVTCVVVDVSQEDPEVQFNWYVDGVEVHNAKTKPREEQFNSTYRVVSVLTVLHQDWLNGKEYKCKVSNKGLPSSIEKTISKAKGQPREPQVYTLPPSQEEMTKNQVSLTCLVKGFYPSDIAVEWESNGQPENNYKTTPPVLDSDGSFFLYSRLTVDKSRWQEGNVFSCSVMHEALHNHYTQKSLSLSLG
light: EIVLTQSPGTLSLSPGERATLSCRASQSIGKSFLAWYQQKPGQAPRLLIYDASTRAADIPARFSGSGSGTDFTLTISSLEPEDFAVYYCQQYYDWPPLSFGGGTKVEIKRTVAAPSVFIFPPSDEQLKSGTASVVCLLNNFYPREAKVQWKVDNALQSGNSQESVTEQDSKDSTYSLSSTLTLSKADYEKHKVYACEVTHQGLSSPVTKSFNRGEC
Take B8: in experiment [1], the dissociation constant Kd came to 5.3 nM, the koff is 0.00091 s⁻¹ and the kon was determined as 170000 M⁻¹ s⁻¹. For the same molecule, in experiment [2], the dissociation constant (Kd) was 12 nM, the koff turned out to be 0.0011 s⁻¹ and the on-rate (kon) turned out to be 91000 M⁻¹ s⁻¹.

B9: Abz1mod-hIgG4 (antibody, V domains shown)
VH: QVQLVQSGSELKKPGASVKVSCKASGYTFTSYAMHWVRQAPGQGLEWMGYISPFTGRATYAQGFTGRFVFSLDTSVSTAYLQISSLKAEDTAVYYCARDYDYRYYYAMDYWGQGTTVTVSS
VL: EIVLTQSPDFQSVTPKEKVTITCRASQSIPPQFLHWYQQKPDQSPKLLIKAASQRASGVPSRFSGSGSGTDFTLTINSLEAEDAATYYCHQFHSSPLTFGGGTKLEIKR
B9: in experiment [1], the Kd stood at 0.426 nM, the dissociation rate constant (koff) was determined as 6e-05 s⁻¹ and the kon is 140000 M⁻¹ s⁻¹. In experiment [2], the Kd is 3.7 nM, the koff came out at 0.00062 s⁻¹ and the kon was found to be 170000 M⁻¹ s⁻¹.

B10: OMC476pG10-hIgG4 (antibody, V domains shown)
VH: DVQLVESGGGVVRPGGSLRLSCAASGFTFSIYAMSWVRQAPGEGLEWVSHISASGGSTYYADSVKGRFAISRDNSKNTLYLQMNSLRAEDTAVYYCTTNLGSDYWGLGTLVTVSS
VL: QSVLTQPPSASGTPGQRVTISCSGSYSDIGTNYVYWYQQLPGTAPKLLIFATDRRPSGVPDRFSGSKSGTSASLAISGLQSEDEADYYCGTWDDSLNVWVFGGGTKLTVLG
Consider B10, for which, in experiment [1], the Kd came to 44 nM, the dissociation rate constant (koff) is 0.0041 s⁻¹ and the kon turned out to be 93000 M⁻¹ s⁻¹. In experiment [2], the dissociation constant (Kd) was 487 nM, the koff came to 0.06 s⁻¹ and the on-rate constant (kon) worked out at 120000 M⁻¹ s⁻¹.

B11: OMC476pH10-hIgG4 (antibody, V domains shown)
VH: DVQLVESGGGVVRPGGSLRLSCAASGFTFSIYAVSWVRQAPGEGLEWVSHISASGGSTYYADSVKGRFAISRDNSKNTLYLQMNSLRAEDTAVYYCTTNLGSDYWGLGTLVTVSS
VL: QSVLTQPPSASGTPGQRVTISCSGSYSDIGTNYVYWYQQLPGTAPKLLIFATDRRPSGVPDRFSGSKSGTSASLAISGLQSEDEADYYCGTWDDSLNVWVFGGGTKLTVLG
For B11, in experiment [1], the dissociation constant (Kd) was found to be 64 nM, the koff amounted to 0.0065 s⁻¹ and the kon turned out to be 100000 M⁻¹ s⁻¹. In experiment [2], the dissociation constant (Kd) came out at 480 nM, the dissociation rate constant (koff) was determined as 0.059 s⁻¹ and the on-rate (kon) came out at 120000 M⁻¹ s⁻¹.

B12: A2-hIgG4 (antibody, V domains shown)
VH: DVQLVESGGGLVQPGGSLRLSCAASGFTFDISAMSWVRQAPGKGLEWVSTISGSAYSTYYADSVKGRFTISRDNSKSTLYLQMNSLRAEDTAVYYCAREIFSDYWGLGTLVTVSS
VL: QSVLTQPPSASGTPGQRVTISCSGSTSNIGRESVYWYQQLPGTAPKLLIYSNVQRPSGAPNRFSGSKSGTSASLAISGLQSEDEADYYCGTWDDSLNGWVFGGGTKLTVLG
Turning to B12, in experiment [1], the Kd turned out to be 36 nM, the off-rate constant (koff) was found to be 0.0013 s⁻¹ and the kon worked out at 37000 M⁻¹ s⁻¹. In experiment [2], the Kd came to 589 nM, the dissociation rate constant (koff) amounted to 0.04 s⁻¹ and the association rate constant (kon) was 68000 M⁻¹ s⁻¹.

B13: G12-hIgG4 (antibody, V domains shown)
VH: DSLVESGGGLVQPGGSLRLSCAASGFTFDISAMSWVRQAPGKGLEWVSTISGSAYSTYYADSVKGRFTISRDNSKSTLYLQMNSLRAEDTAVYYCAREIFSDYWGLGTLVTVSS
VL: QSVLTQPPSASGTPGQRVTISCSGSTSNIGRESVYWYQQLPGTAPKLLIYLNSQRPSGVPDRFSGSKSGTSASLAISGLQSEDVADYYCGTWDDSLNGWVFGGGTKLTVLG
As to B13, in experiment [1], the Kd came out at 50 nM, the koff was 0.0026 s⁻¹ and the on-rate (kon) turned out to be 53000 M⁻¹ s⁻¹. In addition, in experiment [2], the Kd was determined as 754 nM, the koff came to 0.065 s⁻¹ and the kon amounted to 86000 M⁻¹ s⁻¹.

B14: OMC476pE4-hIgG4 (antibody, V domains shown)
VH: DVQLVESGGGVVRPGESLRLSCAASGFTFSTDAMGWVRQAPGEGLEWVSLISGSGYSTYYADSVKGRFTISRDNSKNTLYLQMNSLTAEDTAVYYCAKNSLAFFDYWGLGTLVTVSS
VL: QSVLTQPPSASGTPGQRVTISCSGGSSNIGRESVNWYQQLPGTAPKLLIYSTDRRPSGVPDRFSGSKSGTSASLAISGLQSEDEADYYCGTWDNDLNGWVFGGGTKLTVLG
Consider B14, for which, in experiment [1], the dissociation constant (Kd) turned out to be 11 nM, the koff is 0.00088 s⁻¹ and the kon is 79000 M⁻¹ s⁻¹. Further, in experiment [2], the Kd stood at 331 nM, the koff was determined as 0.035 s⁻¹ and the on-rate (kon) came to 100000 M⁻¹ s⁻¹.

B15: D12-hIgG4 (antibody, V domains shown)
VH: DVQLVESGGGLVQPGGSLRLSCAASGFTFDISAMSWVRQAPGKGLEWVSTISGSAYSTYYADSVKGRFTISRDNSKSTLYLQMNSLRAEDTAVYYCAREIFSDYWGLGTLVTVSS
VL: QSVLTQPPSASGTPGQRVTISCSGNTSNIGRESVYWYQQLPGTAPKLLIYSNVQRPSGVPDRFSGSKSGTSASLAISGLQSEDEADYYCGTWDDSLNGWVFGGGTKLTVLG
Consider B15, for which, in experiment [1], the dissociation constant (Kd) turned out to be 8.1 nM, the off-rate constant (koff) was found to be 0.00046 s⁻¹ and the on-rate (kon) amounted to 57000 M⁻¹ s⁻¹. In experiment [2], the Kd was found to be 272 nM, the koff stood at 0.016 s⁻¹ and the on-rate constant (kon) was found to be 59000 M⁻¹ s⁻¹.

(Values after patent US20240076343A1 (CEPHALON, published 2024).)
